First the molecules themselves.
B1: HHV-6B gB ectodomain (residues 1-680, strain Z29) with fusion loop substitutions, C-terminal His-tag (domain or fragment)
chain: IYCDSDDYIRAGYNHKYPFRICSIAKGTDLMRFDRDISCSPYKSNAKMSEGFFIIYKTNIETYTFPVRTYKNELTFPTSYRDHRTTYFLDRTVMGLAMPVYEANLVNSRAQCYSAVAIKRPDGTVFSAYHEDNNKNETLELFPLNFKSVTNKRFITTKEPYFARGPLATHSTSTSLNCIVTEATAKAKYPFSYFALTTGEIVEGSPFFDGSNGKHFAEPLEKLTILENYTMIEDLMNGMNGATTLVRKIAFLEKGDTLFSWEIKEENESVCMLKHWTTVTHGLRAETDETYHFISKELTAAFVASKESLNLTDPKQTCIKNEFEKIITDVYMSDYNDAYSMNGSYQIFKTTGDLILIWQPLVQKSLMVLEQGSVNLRRRRDLVDVKSRHDILYVQLQYLYDTLKDYINDALGNLAESWCLDQKRTITMLHELSKISPSSIVSEVYGRPISAQLHGDVLAISKCIEVNQSSVQLYKSMRVVDAKGVRSETMCYNRPLVTFSFVNSTPEVVLGQLGLDNEILLGDHRTEECEIPSTKIFLSGNHAHVYTDYTHTNSTPIEDIEVLDAFIRLKIDPLENADFKLLDLYSPDELSRANVFDLENILREYNSYKSALYTIEAKIATNTPSYVNGINSFLQGLGAIGTGLGSVISVTAGALGDIVGG
notes: signal peptide in the construct (predicted signal peptide residues 1-19); glycoprotein B of human herpesvirus 6B strain Z29, ectodomain residues 1-680; furin site 396RRRR|D400 not mutated, mostly uncleaved; also called HHV-6B gB-His; HHV-6B gB680-mut; source: Expi293F, transiently transfected, purified from supernatant (Ni Sepharose IMAC, Superdex 200 SEC); not shown: His6, C-terminal, kept
B2: human nectin-2 V-set domain (residues 1-158) fused with the Fc region of human IgG (Fc fusion)
chain: QDVRVQVLPEVRGQLGGTVELPCHLLPPVPGLYISLVTWQRPDAPANHQNVAAFHPKMGPSFPSPKPGSERLSFVSAKQSTGQDTEAELQDATLALHGLTVEDEGNYTCEFATFPKGSVRGMTWLRV
notes: signal peptide in the construct; human nectin cell adhesion molecule 2 (nectin-2), V-set domain, residues 1-158; also called V-set-Fc; source: Expi293F, transiently transfected, purified from supernatant (protein G resin, SEC)

Data set [1] concerns the molecule itself. Put plainly: cryo-EM structure; HHV-6B gB-His at 10 mg/ml in PBS with 0.1% DDM; single-particle analysis, C3 symmetry applied, 2.8 Å; postfusion trimer.
Data set [2] concerns the target B1. Put plainly: co-IP; purified proteins: 4 µg V-set-Fc with 8 µg HHV-6B gB (His- or Flag-tagged), 4°C 2 h, protein G beads overnight at 4°C; six washes in 50 mM HEPES pH 7.4, 150 mM NaCl, 5 mM EDTA, 0.5% NP40; immunoblot with anti-human IgG and anti-His or anti-Flag. The note with it: both partners purified. In general terms: A western blot detects proteins with antibodies after separation by electrophoresis.

In data set [3] the target is T1, HHV-6B gB ectodomain (residues 1-680, strain Z29) with fusion loop substitutions, C-terminal Flag-tag (Human herpesvirus 6B (strain Z29), UniProt P36320 20-680, VGVV102-105 to HRTT | WLY187-189 to ATH).
T1 construct: signal peptide in the construct (predicted signal peptide residues 1-19); glycoprotein B of human herpesvirus 6B strain Z29, ectodomain residues 1-680; Same ectodomain as m1 (a trimer in the structure) with a Flag-tag instead of the His-tag; also called HHV-6B gB-Flag; wild-type HHV-6B gB-Flag; source: Expi293F, transiently transfected, purified from supernatant (Flag beads, 3xFlag peptide …)
T1 sequence: B1 chain
The description is as above. The note with it: both partners purified.

The stoichiometry N is the number of molecules, sites or subunits per partner or assembly. Regarding B1, the “stoichiometry N” value in data set [1] turned out to be 3. B2: the binding result in data set [2] and in data set [3] was “binds” each time.

For the origin of these results see PMC12240383, “Human herpesvirus 6B glycoprotein B postfusion structure, vulnerability mapping, and receptor recognition” (PLOS Pathogens, 2025).
